Measurements published in patent publication US20060177448.

Target: gDHER2(DIV)-IgG, P04626

B1: purified catalytic domain of MT5-MMP (MMP-25) (protein)
chain: YALSGSVWKKRTLTWRVRSFPQSSQLSQETVRVLMSYALMAWGMESGLTFHEVDSPQGQEPDILIDFARAFHQDSYPFDGLGGTLAHAFFPGEHPISGDTHFDDEETWTFGSKDGEGTDLFAVAVHEFGHALGLGHSSAPNSIMRPFYQGPVGDPDKYRLSQDDRDGLQQLYG
in vitro HER2 cleavage (sheddase) assay, stained gel: All MT-MMPs except MMP-14 efficiently cleave gDHER2(DIV)-IgG substrate
